Laboratory results as given in patent US20170204167A1 (INSTITUTE FOR RESEARCH IN BIOMEDICINE, published 2017).

B1: FI6 variant 2 (antibody, V domains shown)
VH: QVQLVQSGGGVVQPGRSLRLSCVASGFTFSTYAMHWVRQAPGRGLEWVAVISYDGNYKYYADSVKGRFSISRDNSNNTLHLEMNTLRTEDTALYYCAKDSQLRSLLYFEWLSQGYFDPWGQGTLVTVTS
VL: DIQMTQSPDSLAVSLGARATINCKSSQSVTFNYKNYLAWYQQKPGQPPKVLIYWASARESGVPDRFSGSGSGTDFTLTISSLQAEDVAVYYCQQHYRTPPTFGQGTKVEIK
B2: FI28 variant 1 (antibody, V domains shown)
VH: EVQLVESGGGAVQPGESLKLSCAASGFTFSNYGMHWVRQAPGKGLEWVAVISYDGSNKYYADSVKGRFTISRDNSKDTLYLQMNSLRAEDTALFYCAKERPLRLLRYFDWLSGGANDYWGQGTLVTVSS
VL: DIVMTQSPDSLAVSLGERATINCKSSQSVLYSSNNKNYLAWYQQKPGQPPKLLIDWASTRESGVPDRFSGSGSGTDFTLTISNLQVEDVAVYYCQQYYRSPSFGQGTKLEIK
B3: FI6 variant 3 (antibody, V domains shown)
VH: QVQLVESGGGVVQPGRSLRLSCAASGFTFSTYAMHWVRQAPGKGLEWVAVISYDANYKYYADSVKGRFTISRDNSKNTLYLQMNSLRAEDTAVYYCAKDSQLRSLLYFEWLSQGYFDYWGQGTLVTVSS
VL: not shown

Assays:
HA of H3N2 A/WI/67/05 = HA of H3N2 A/WI/67/05 (influenza A virus H3N2 A/WI/67/05); experiment: cell-based or functional assay
[1] = target: T1, HA of H1N1 A/Solomon Islands/3/06 (influenza A virus H1N1 A/Solomon …); experiment: cell-based or functional assay
HA of H3N2 A/CA/7/04 = HA of H3N2 A/CA/7/04 (influenza A virus H3N2 A/CA/7/04); experiment: cell-based or functional assay
[2] = target: T2, HA of H1N1 A/New Caledonia/20/99 (influenza A virus H1N1 A/New …); experiment: cell-based or functional assay
[3] = target: T1, HA of H1N1 A/Solomon Islands/3/06; experiment: ELISA on recombinant or purified HA
[4] = target: T2, HA of H1N1 A/New Caledonia/20/99; experiment: ELISA on recombinant or purified HA

| Binder | Neutralization of infectious viruses (IC50, µg/ml) (HA of H3N2 A/WI/67/05) [µg/mL] | Neutralization of infectious viruses (IC50, µg/ml) [1] [µg/mL] | Neutralization of infectious viruses (IC50, µg/ml) (HA of H3N2 A/CA/7/04) [µg/mL] | Neutralization of infectious viruses (IC50, µg/ml) [2] [µg/mL] | EC50 [3] [µg/mL] | EC50 [4] [µg/mL] |
| --- | --- | --- | --- | --- | --- | --- |
| B1 | 12.5 | 8.8 | 7.9 | 6.3 | 0.018 | 0.015 |
| B2 | > 100 | > 100 | > 100 | > 100 | – | – |
| B3 | – | – | – | – | 0.019 | 0.017 |
